Data reported in PMC10139410, “β-Cyclodextrin Polymer-Based Fluorescence Enhancement Strategy via Host–Guest Interaction for Sensitive Assay of SARS-CoV-2”.

Assays:
[1] = target: T1, SARS-CoV-2 nucleocapsid (N) protein (SARS-CoV-2, UniProt P0DTC9 1-419); experiment: circular dichroism; 1 uM each, 30 min at 37 C; 280 nm peak increased; Tris-HCl pH 7.6, 37 C, 30 min; 400 nM aptamer, 240 U/mL Exo I, 1.5 mg/mL beta-CDP; salt not in the material held
[2] = target: T1, SARS-CoV-2 nucleocapsid (N) protein; experiment: Exo I protection, agarose gel; 600 nM N protein, 400 nM aptamer, 240 U/mL Exo I; labeled form inferred from text on pyrene; Tris-HCl pH 7.6, 37 C, 30 min; 400 nM aptamer, 240 U/mL Exo I, 1.5 mg/mL beta-CDP; salt not in the material held; conditions: label: 3'-pyrene

| Binder | binding result [1] | binding result [2] |
| --- | --- | --- |
| N protein-binding aptamer (ssDNA) DNA: GCTGGATGTCGCTTACGACAATATTCCTTAGGGGCACCGCTACATTGACACATCCAGC | binds | – |
| Pyrene-labeled N protein binding aptamer (ssDNA, 5'-SH (so in the source); 3'-pyrene) DNA: GCTGGATGTCGCTTACGACAATATTCCTTAGGGGCACCGCTACATTGACACATCCAGC | – | binds |
